Assay results: publication PMC3553564

B1: dsRNA (dsRNA)
RNA 1: AUCGGGCA
RNA 2: UGCCCGAU
B2: dsDNA (dsDNA)
DNA 1: CCTTACAGCAAA
DNA 2: TTTGCTGTAAGG

Assays:
Test in all cases: fluorescence polarization
[1] = biological target: RBM25 PWI domain + flanking basic region WT (Homo sapiens, UniProt P49756 734-843)
PWI K825A+R828A = PWI K825A+R828A (Homo sapiens, UniProt P49756 734-843, K825A;R828A)
PWI H737A+K739A = PWI H737A+K739A (Homo sapiens, UniProt P49756 734-843, H737A;K739A)
PWI K777A+K778A = PWI K777A+K778A (Homo sapiens, UniProt P49756 734-843, K777A;K778A)
PWI K744A = PWI K744A (Homo sapiens, UniProt P49756 734-843, K744A)
PWI K837A+K838A = PWI K837A+K838A (Homo sapiens, UniProt P49756 734-843, K837A;K838A)
PWI R769A+R770A = PWI R769A+R770A (Homo sapiens, UniProt P49756 734-843, R769A;R770A)
PWI K734A+R735A+K736A = PWI K734A+R735A+K736A (Homo sapiens, UniProt P49756 734-843, K734A;R735A;K736A)
PWI ΔHb = PWI ΔHb (Homo sapiens, UniProt P49756 746-843, del734-745)
Sequence of PWI ΔHb (P49756 746-843, stated change not applied): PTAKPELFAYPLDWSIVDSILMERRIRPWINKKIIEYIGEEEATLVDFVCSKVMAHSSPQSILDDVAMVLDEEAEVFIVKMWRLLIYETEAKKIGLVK

Sequence of RBM25 PWI domain + flanking basic region WT (P49756 734-843): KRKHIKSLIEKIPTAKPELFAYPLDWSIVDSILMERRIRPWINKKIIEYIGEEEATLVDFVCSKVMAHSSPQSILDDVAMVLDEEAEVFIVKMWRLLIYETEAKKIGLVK
Sequence of PWI K777A+K778A (P49756 734-843 K777A/K778A): as the sequence (P49756 734-843) above, with K44A, K45A counted along it
Sequence of PWI K825A+R828A (P49756 734-843 K825A/R828A): as the sequence (P49756 734-843) above, with K92A, R95A counted along it
Sequence of PWI K744A (P49756 734-843 K744A): as the sequence (P49756 734-843) above, with K11A counted along it
Sequence of PWI H737A+K739A (P49756 734-843 H737A/K739A): as the sequence (P49756 734-843) above, with H4A, K6A counted along it
Sequence of PWI K837A+K838A (P49756 734-843 K837A/K838A): as the sequence (P49756 734-843) above, with K104A, K105A counted along it
Sequence of PWI K734A+R735A+K736A (P49756 734-843 K734A/R735A/K736A): as the sequence (P49756 734-843) above, with K1A, R2A, K3A counted along it
Sequence of PWI R769A+R770A (P49756 734-843 R769A/R770A): as the sequence (P49756 734-843) above, with R36A, R37A counted along it

Row | Binder | Kd [1] [µM] | Kd (PWI K825A+R828A) [µM] | Kd (PWI H737A+K739A) [µM] | Kd (PWI K777A+K778A) [µM] | Kd (PWI K744A) [µM] | Kd (PWI K837A+K838A) [µM] | Kd (PWI R769A+R770A) [µM] | Kd (PWI K734A+R735A+K736A) [µM] | binding result (PWI ΔHb)
1 | CCTTACAGCAAA (ssDNA) [ssDNA] | ~4.4 |  |  |  |  |  |  |  | 
2 | B1 | ~8.2 |  |  |  |  |  |  |  | 
3 | AUCGGGCA (ssRNA) [ssRNA] | 11.3 ± 1 | 106 ± 17.3 | 61.6 ± 9.3 | 156 ± 29.4 | 19.9 ± 4.4 | 15.7 ± 2.1 | 32.1 ± 1.4 | 183 ± 44.7 | no binding
4 | B2 | ~6.7 | ~106 | ~57 | ~160 | ~23.6 | ~40.4 | ~46 | ~194 | no binding
